The values that follow are results of earlier work, collected in article PMC6969543.

For the series, the target named is Glu325 (UniProt position 325, TLHMFEVPFLL). Kind of series: IR.

In general, pKa refers to the negative logarithm of the acid dissociation constant. In the case of “Lactose permease (LacY), form used in earlier work (quoted values) (Escherichia coli)”, the pKa is reported as 10.5 ± 0.1.
